Where no end group is shown, it is not given here. The star is where a group is joined. Biotin = O=C1N[C@H]2[C@H](CS[C@H]2CCCCC(=O)*)N1
How the values were obtained:
[1] = target: T1, full length human tau protein 2N4R (hT40) (human, UniProt P10636 1-758); test: direct binding ELISA
T1 construct: recombinant; also called T441

dGAE (tau 297-391) [2] = target: T2, dGAE (tau 297-391) (human, UniProt P10636 614-708); test: ELISA
T2 construct: monomer; also called dGAE95
Protocol: (§1) A series of binding ELISA was performed using various truncated versions of the tau protein and 13mer peptide libraries spanning the entire hT40 molecule for mapping the epitopes of anti-tau scAbs (Full list of protein antigens used is given in Table 14). In general, ELISA plates were coated with 1 μg/ml hT40 or dGA or dGAE or other truncated versions of the protein and in the case of biotinylated peptides, plates were coated with 5 μg/ml Streptavidin followed by 1 μg/ml biotinylated peptide. The plates were blocked with 2% MPBS and scAb samples added at desired starting concentrations and double diluted across the plate. Binding was detected using anti-Human C Kappa HRP conjugated secondary antibody and the resulting immunoreaction was developed and absorbance values measured as described above.

dGA (tau 297-390) [3] = target: T3, dGA (tau 297-390) (human, UniProt P10636 614-707); test: SPR, scAb captured, tau analyte
Procedure, shortened: (§2)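 scAb captured on flow cell 2 of an antibody-coated chip, flow cell 1 as reference; tau analyte injected 120 s association, 420 s dissociation, glycine pH 2.0 regeneration, in multi-cycle or single-cycle kinetics format. Responses fitted to a 1:1 binding model for kinetics and affinity.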
Target sequence in this assay (P10636 614-707 limits assumed): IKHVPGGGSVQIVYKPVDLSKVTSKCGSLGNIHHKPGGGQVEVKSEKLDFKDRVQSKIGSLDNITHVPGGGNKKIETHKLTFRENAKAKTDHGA

tau peptide 306-323 = target: T4, tau peptide 306-323; test: peptide ELISA
T4 peptide: Biotin-VQIVYKPVDLSKVTSKCG

tau peptide 313-336 = target: T5, tau peptide 313-336 (human); test: peptide ELISA
T5 peptide: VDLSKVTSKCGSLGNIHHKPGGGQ

tau fragment 369-391 [4] = target: T6, tau fragment 369-391 (human); test: direct ELISA
T6 peptide: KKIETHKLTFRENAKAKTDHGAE

[5] = target: T1, full length human tau protein 2N4R …; test: SPR, scAb captured, tau analyte
Procedure, shortened: as §2
Target sequence in this assay (P10636 other isoform, or with tags, fused parts or gaps limits assumed): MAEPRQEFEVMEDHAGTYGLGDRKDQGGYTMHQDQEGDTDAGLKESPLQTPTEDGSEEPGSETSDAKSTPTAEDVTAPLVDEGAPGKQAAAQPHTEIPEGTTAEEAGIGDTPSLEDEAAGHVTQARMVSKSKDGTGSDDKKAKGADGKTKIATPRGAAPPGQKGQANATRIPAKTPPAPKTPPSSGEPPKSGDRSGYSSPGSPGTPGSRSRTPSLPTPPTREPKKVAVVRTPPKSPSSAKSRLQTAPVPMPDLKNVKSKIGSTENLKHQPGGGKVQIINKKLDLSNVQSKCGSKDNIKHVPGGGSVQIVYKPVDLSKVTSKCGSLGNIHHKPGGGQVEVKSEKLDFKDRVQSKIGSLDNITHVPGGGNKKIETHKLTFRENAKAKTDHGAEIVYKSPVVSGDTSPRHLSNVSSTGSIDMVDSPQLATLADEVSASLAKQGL

[6] = target: T7, tau fragment 266-359 (R1-3) (human, UniProt P10636 583-676); test: direct ELISA
T7 sequence (P10636 583-676): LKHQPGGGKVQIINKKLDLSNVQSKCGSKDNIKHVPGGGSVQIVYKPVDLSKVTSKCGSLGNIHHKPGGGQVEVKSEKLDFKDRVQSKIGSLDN

[7] = target: T1, full length human tau protein 2N4R …; test: SPR, summary table
Procedure, shortened: as §2
Target sequence in this assay (P10636 other isoform, or with tags, fused parts or gaps limits assumed): as the sequence (P10636 other isoform, or with tags, fused parts or gaps limits assumed) above

tau fragment 369-390 [8] = target: T8, tau fragment 369-390 (human); test: direct ELISA
T8 peptide: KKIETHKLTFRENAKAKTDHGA

tau fragment 337-368 [9] = target: tau fragment 337-368 (human); test: direct ELISA
tau fragment 337-368 (human), sequence (peptide, as listed by the source): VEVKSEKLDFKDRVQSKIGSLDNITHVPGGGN

[10] = target: T9, human tau (hT40) with P301S and G335D of Line 66 mice (human, UniProt P10636 1-758); test: sandwich ELISA on brain homogenate, S1D12 mAb capture
T9 construct: transgene product in brain homogenate or plasma; also called L66 human tau
Protocol: All animals were female, 7-8 months old except Line 66+/+ which were 5 months old. […] For brain lysate preparation, half brains were sectioned into four and the individual sections were homogenised in 400 μl of ice cold RIPA buffer (Cell signalling Technology) containing protease and phosphatase inhibitors. Total protein concentrations for individual samples were established by BCA-assay and each sample was subsequently diluted to 1 mg/ml for future experiments.
Plate was washed as previously and then blocked for 1 hour at 37° C. in 2% MPBS. Brain homogenate samples (50 ng total protein) from each mouse type were added to the first wells and double diluted across the plate in PBS. These samples were left to incubate at RT for 1 hour. Various detection scAbs encompassing epitopes of interest were then added to the plate at 1 μg/ml and incubated for 1 h at RT. Secondary antibody used was anti-HuCk HRP and the assays were developed as described previously.

[11] = target: T1, full length human tau protein 2N4R …; test: Biacore
Procedure, shortened: as §2
Target sequence in this assay (P10636 other isoform, or with tags, fused parts or gaps limits assumed): as the sequence (P10636 other isoform, or with tags, fused parts or gaps limits assumed) above

tau fragment 1-49 = target: T10, tau fragment 1-49 (human); test: direct ELISA
T10 construct: also called Tau 1-49
T10 peptide: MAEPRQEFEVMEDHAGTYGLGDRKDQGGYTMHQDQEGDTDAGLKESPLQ

[12] = target: T1, full length human tau protein 2N4R …; test: sandwich ELISA, hT40 titrated, S1D12 mAb capture, CB7 scAb at 1 µg/ml
Protocol: (§4) Four spiked samples were added to the first wells of designated rows and all samples were double diluted in PBS across the plate including the standard. […] Secondary antibody anti HuCk HRP was added and the reaction was developed and read as described previously. For ELISA #2, 20 nM dGAE was added to the first well and double diluted across the plate for standard curve plotting. As for ELISA #1, spiked samples of unknown protein concentrations were added to respective wells in doubling dilutions. […] For ELISA #3, a standard curve was plotted using average absorbance values obtained from binding events of hT40, dGA and dGAE all at starting concentration of 20 nM.

mouse tau = target: T11, mouse tau (mouse, UniProt P10637 2-733); test: sandwich ELISA on mouse plasma, S1D12 mAb capture
T11 construct: endogenous protein of mouse brain or plasma; also called endogenous mouse tau
T11 sequence (P10637 other isoform, or with tags, fused parts or gaps limits assumed): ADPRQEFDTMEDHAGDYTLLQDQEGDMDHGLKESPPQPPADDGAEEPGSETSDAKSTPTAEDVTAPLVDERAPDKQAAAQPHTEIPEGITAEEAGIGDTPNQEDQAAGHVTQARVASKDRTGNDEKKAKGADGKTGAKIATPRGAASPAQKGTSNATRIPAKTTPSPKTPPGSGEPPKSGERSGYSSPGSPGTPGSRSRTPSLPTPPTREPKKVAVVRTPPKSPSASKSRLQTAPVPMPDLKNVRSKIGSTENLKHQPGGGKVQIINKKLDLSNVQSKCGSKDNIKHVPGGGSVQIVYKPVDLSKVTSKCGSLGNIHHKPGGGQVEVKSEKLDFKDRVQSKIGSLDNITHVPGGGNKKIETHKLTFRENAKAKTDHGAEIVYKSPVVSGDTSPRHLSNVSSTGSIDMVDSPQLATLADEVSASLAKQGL
Protocol: After washing and blocking as normal, several known standard solutions were set up in triplicate starting at 20 ng/ml of the desired protein before double diluted in the remaining wells. Mouse samples were added to wells in duplicate with a blank in between each sample group. Line1 plasma was diluted 1:10 before addition to plate to account for its high concentration while other samples were diluted 1:2 to account for potential matrix effects. These samples were left to incubate at RT for 1 hour. HRP-conjugated secondary scAb (conjugation carried out according to manufacturer's guidelines, Abcam) was added to each well and left to incubate at RT for 1 hour. The ELISA was developed using SuperSignal ELISA Femto Substrate (Thermo Scientific) and total luminescence was read on Clariostar Plus plate reader (BMG Labtech). Tau concentrations were established using a 4-parameter fit on concentration curves generated from recombinant tau protein spiked into samples at known concentration. For WT and L66 hT40 was used as a calibrator while dGA was used for L1 calibration.

dGA (tau 297-390) [13] = target: T3, dGA (tau 297-390); test: sandwich ELISA #1, S1D12 mAb capture, sample C
Target sequence in this assay (P10636 614-707 limits assumed): as the sequence (P10636 614-707 limits assumed) above
Protocol: To this end, an experiment was set up to assess whether the concentrations of different tau species could be determined in spiked samples using various antibody pairings directed towards specific regions of the tau protein.
as §4

[14] = target: T1, full length human tau protein 2N4R …; test: sandwich ELISA, S1D12 mAb capture, scAb detection
Procedure, shortened: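 Read-out was HRP anti-HuCk with absorbance at 450 nm (positive above 0.3 after background subtraction) or chemiluminescence, including directly HRP-conjugated scAbs.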
Target sequence in this assay (P10636 other isoform, or with tags, fused parts or gaps limits assumed): as the sequence (P10636 other isoform, or with tags, fused parts or gaps limits assumed) above

[15] = target: T7, tau fragment 266-359 (R1-3); test: direct ELISA; remark: listed apart in the source
tau peptide 341-353 = target: T12, tau peptide 341-353 (human); test: ELISA on biotinylated peptide over streptavidin
T12 peptide: Biotin-SEKLDFKDRVQSK
Protocol: as §1

[16] = target: T1, full length human tau protein 2N4R …; test: hT40 ELISA
Target sequence in this assay (P10636 other isoform, or with tags, fused parts or gaps limits assumed): as above

dGAE (tau 297-391) [17] = target: T2, dGAE (tau 297-391); test: direct ELISA
tau fragment 186-350 = target: T13, tau fragment 186-350 (human, UniProt P10636 503-667); test: direct ELISA
T13 construct: also called m186-350
T13 sequence (P10636 503-667): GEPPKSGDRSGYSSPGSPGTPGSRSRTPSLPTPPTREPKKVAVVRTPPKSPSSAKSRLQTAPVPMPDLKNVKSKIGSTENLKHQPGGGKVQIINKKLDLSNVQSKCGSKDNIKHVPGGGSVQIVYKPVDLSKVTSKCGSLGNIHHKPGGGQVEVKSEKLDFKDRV

tau fragment 337-368 [18] = target: tau fragment 337-368 (human); test: direct ELISA; remark: listed apart in the source
[19] = target: T1, full length human tau protein 2N4R …; test: hT40 ELISA; remark: listed apart in the source
Target sequence in this assay (P10636 other isoform, or with tags, fused parts or gaps limits assumed): as the sequence (P10636 other isoform, or with tags, fused parts or gaps limits assumed) above

tau fragment 369-391 [20] = target: T6, tau fragment 369-391; test: ELISA
Protocol: as §1

dGA (tau 297-390) [21] = target: T3, dGA (tau 297-390); test: ELISA
Protocol: as §1

tau fragment 369-390 [22] = target: T8, tau fragment 369-390; test: ELISA
Protocol: as §1

[23] = target: T1, full length human tau protein 2N4R …; test: ELISA
Protocol: as §1

dGAE (tau 297-391) [24] = target: T2, dGAE (tau 297-391); test: SPR, scAb captured, tau analyte
Procedure, shortened: as §2
Target sequence in this assay (P10636 614-708 limits assumed): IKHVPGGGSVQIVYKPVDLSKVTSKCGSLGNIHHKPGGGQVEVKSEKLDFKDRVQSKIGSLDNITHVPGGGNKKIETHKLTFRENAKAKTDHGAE

dGAE (tau 297-391) [25] = target: T2, dGAE (tau 297-391); test: Biacore, for dGAE
Target sequence in this assay (P10636 614-708 limits assumed): as above

dGAE (tau 297-391) [26] = target: T2, dGAE (tau 297-391); test: sandwich ELISA, dGAE titrated, S1D12 mAb capture
Target sequence in this assay (P10636 614-708 limits assumed): as above

dGA (tau 297-390) [27] = target: T3, dGA (tau 297-390); test: direct ELISA
Procedure, shortened: (§3)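 Plates coated with 1 μg/ml tau protein or truncated fragment; biotinylated peptides (1 μg/ml) captured on 5 μg/ml streptavidin. After 2% MPBS blocking, scAbs double-diluted from set starting concentrations; binding detected via anti-human C kappa HRP secondary and absorbance read-out.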
Target sequence in this assay (P10636 614-707 limits assumed): as the sequence (P10636 614-707 limits assumed) above

[28] = target: T1, full length human tau protein 2N4R …; test: direct ELISA
Procedure, shortened: as §3

B1: E2A6 scAb (scFv, not shown: small tags and cut ends)
scFv: QVQLQESGPSLVKPSQTLSLTCTVSGFSLTDWGVAWVRQAPGKALEWLGTMRSGGTTDDNPALKSRLSITRDTSKSQVSLSLSSVTTEDMAMYYCARGYLSGVHYAWGRGLLVTVSSEGKSSGASGESKVDDRVVRTQPSSVSKSLGQSVSITCSGSSSNVGAGNYVGWFQQVPGSAPKLLIYGATNRASGVPARFSGSKSGVTATLTITSLQAEDEADYYCASIDTSRSHIFGSGTRLTVLG
notes: scAb
binding result [1]: no binding | binding result (dGAE (tau 297-391) [2]): binds

B2: E1B8 scAb (scFv, not shown: small tags and cut ends)
scFv: QVQLQESGPSLVKPSQTLSLTCTVSGFSLTNYPVGWVRQAPGKALEWIGNIENDGSANYASALKSRLSITRDTSKNQVSLSLSSATTEDTAVYYCGREFGGSDGYTYFVDIDYWGPGLLVTVSSEGKSSGASGESKVDDQAVLTQPSSVSKSLGQSVSITCSGSSSNVGYGNYVSWFQQVPGSAPKILIYGATSRASGVPDRFSGSRSGNTATLTITSLQAEDEADYYCASYDGSSSGVFGSGTRLTVLG
notes: scAb
Kd (dGA (tau 297-390) [3]): 17.7 nM | koff (dGA (tau 297-390) [3]): 0.00242 s⁻¹ | kon (dGA (tau 297-390) [3]): 137000 M⁻¹ s⁻¹ | binding result (tau peptide 306-323): no binding (tested: 25 ug/ml) | EC50 (read off the curve) (tau peptide 313-336): ~2 µg/mL

B3: NS2A1 scAb (scFv, not shown: small tags and cut ends)
scFv: QVQLQESGPSLVKPSQTLSLTCTVSGFSLSTNSVGWVRQAPGKAPEWVAGIDTDGEEGFNPVLKSRLSITRDTSKSQVSLSLSNVTSEDTAVYYCGRSYRTDGLAYGYVQAIDYWGPGLLVTISSEGKSSGASGESKVDDQSVLTQPSSVSGSPGQTVSITCSGSYIGSSGVGWFQQLPGSGLRTIIVASDGRPSGVPDGFSMSKSGNTATLTISSLQAEDEADYFCGSSDRTQYTGLFGSGTRLTVLG
notes: scAb
binding result (tau fragment 369-391 [4]): no binding (tested: 25 ug/ml) | Kd (dGA (tau 297-390) [3]): 5.4 nM | koff (dGA (tau 297-390) [3]): 0.00102 s⁻¹ | kon (dGA (tau 297-390) [3]): 188000 M⁻¹ s⁻¹ | Kd [5]: 2.9 nM | koff [5]: 0.000739 s⁻¹ | kon [5]: 252000 M⁻¹ s⁻¹ | binding result [6]: no binding (tested: 25 ug/ml) | Kd [7]: 2.9 nM | binding result (tau fragment 369-390 [8]): no binding (tested: 25 ug/ml) | binding result (tau fragment 337-368 [9]): no binding (tested: 25 ug/ml)

B4: CB7 scAb (scFv, not shown: small tags and cut ends)
scFv: QVQLQESGPSLVKPSQTLSLTCTVSGFSLTNYRVGWVRQAPGKALEWVSNIRSGGTTWYNPALKSRLSITADTSKSQVSLSLSSVTTEDTAVYYCARDSSGDLYAYDYWGPGLLVTVSSEGKSSGASGESKVDDQAVLTQPSSVSRSLGQSVSMTCSGSSSNVGYGNYMAWFQQVPGSAPKLLIYGATSRASGVPDRFSGSRSGNTATLTISSLQAEDEADYYCASYDSTSGGVFGSGTRLTVLG
notes: scAb
Kd [5]: 5.19 nM | koff [5]: 0.000694 s⁻¹ | kon [5]: 133000 M⁻¹ s⁻¹ | binding result [10]: binds | Kd [7]: 5.19 nM | Kd [11]: 5.2 nM | binding result (tau fragment 1-49): binds | EC50 (read off the curve) [12]: ~4 nM | binding result (mouse tau): no binding | binding result (dGA (tau 297-390) [13]): no binding (tested: 2 nM dGA) | LoD chemiluminescence detection [14]: 3.33 ng/mL | LoD colourimetric detection [14]: 15 ng/mL

B5: S1D12 scAb (scFv, not shown: small tags and cut ends)
scFv: QVQLQESGPSLVKPSQTLSLTCTVSGFSLNNNAVGWVRQAPGKVPESLVGCSSDGTCYYNSALKSRLDITRDTSKNQISLSLSSVTTDDAAVYYCTRGHYSIYGYDYLGTIDYWGPGLLVTVSSEGKSSGASGESKVDDQAVLTQPSSVSGSLGQRVSITCSGSSSNVGGGNSVGWYQHLPGSGLKTIIYDTNSRPSGVPDRFSGSRSGNTATLTINSLQAEDEGDYYCVTGDSTTHDDLVGSGTRLTVLG
notes: scAb
EC50 (read off the curve) [15]: ~0.5 µg/mL | EC50 (read off the curve) (tau peptide 341-353): ~0.8 µg/mL | EC50 (read off the curve) [16]: ~1 µg/mL | Kd (dGA (tau 297-390) [3]): 0.344 nM | koff (dGA (tau 297-390) [3]): 0.000418 s⁻¹ | kon (dGA (tau 297-390) [3]): 1.21e+06 M⁻¹ s⁻¹ | Kd [5]: 0.122 nM | koff [5]: 0.00015 s⁻¹ | kon [5]: 1.25e+06 M⁻¹ s⁻¹ | Kd [7]: 0.122 nM | EC50 (read off the curve) (dGAE (tau 297-391) [17]): ~3 µg/mL | EC50 (read off the curve) (tau fragment 186-350): ~2 µg/mL | EC50 (read off the curve) (tau fragment 337-368 [18]): ~4 µg/mL | EC50 (read off the curve) [19]: ~0.005 µg/mL

B6: MD9/MoD9 scAb (scFv, not shown: small tags and cut ends)
scFv: QVRLQESGPSLVKSSQTLSLTCTVSGFSLTRESIAWVRQAPGKVPEWLGGVGIDGTSYYSPALKSRLSITRDTSKSQASLSLSSVATEDTAMYYCARNYIDFEYWGPGLLVTVSSEGKSSGASGESKVDDQAVLTQLSSVSGSLGQRISITCSGSSSNVGIYDVSWFQQLPGSGLRTVIYGTNNRPSGVPDRFSGSRSGNTATLTISSLQSEDEAIYYCAAGDSSTIAVFGSGTRLTVLG
notes: scAb
binding result (tau fragment 369-391 [20]): binds | binding result (dGA (tau 297-390) [21]): binds | binding result (tau fragment 369-390 [22]): binds | binding result (dGAE (tau 297-391) [2]): binds | binding result [23]: binds

B7: E2E8 scAb (scFv, not shown: small tags and cut ends)
scFv: QVQLQESGPSLVKPSQTLSLTCTVSGFSLTDRGVAWVRQAPGKALEWVGTMRSGGTIDYNPALKSRLSITRDTSKSQVFLSLSSVTTEDMAMYYCARGYLSGDRYAWGRGLLVTVSSEGKSSGASGESKVDDQAVLTQPSSVSKSLGQSVSIACSGSRSDIGYGNYVSWFQQIPGSAPKLLIYDTNTRASGVPDRFSGARSGNTATLTINSLQAEDEADYYCANIDSSRSHLFGSGTRLTVLG
notes: scAb
Kd (dGAE (tau 297-391) [24]): 0.401 nM | koff (dGAE (tau 297-391) [24]): 0.000191 s⁻¹ | kon (dGAE (tau 297-391) [24]): 477000 M⁻¹ s⁻¹ | Kd (dGAE (tau 297-391) [25]): 0.4 nM | EC50 (read off the curve) (dGAE (tau 297-391) [26]): ~0.7 nM | binding result (dGA (tau 297-390) [27]): no binding (tested: 25 ug/ml) | binding result [28]: no binding (tested: 25 ug/ml)

From US20250355001A1 (GTINVENT, published 2025)
